# Measurements taken from patent US20170044515.
# Positions count from the first letter of the chain named.
# T1: kB1-NHV (not fully specified)
# T1 chain: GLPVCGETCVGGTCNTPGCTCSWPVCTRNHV
# T2: Thanatin analog
# T2 chain: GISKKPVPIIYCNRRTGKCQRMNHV
# T3: kB1-EHV (not fully specified)
# T3 chain: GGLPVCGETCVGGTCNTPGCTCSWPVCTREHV
# T4: GV-10
# T4 chain: GLPPPIFNHV
# T5: SFTI-NHV
# T5 chain: GRCTKSIPPICFPNHV
# T6: Apelin substrate (H. sapiens)
# T6 chain: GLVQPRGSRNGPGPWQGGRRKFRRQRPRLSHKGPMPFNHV
# T7: SV-10
# T7 chain: SLPPPIFNHV
# T8: Neuromedin U substrate (H. sapiens)
# T8 chain: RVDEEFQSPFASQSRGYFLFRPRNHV
# T9: Rat neuromedin U substrate
# T9 chain: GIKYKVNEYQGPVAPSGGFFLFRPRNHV
# T10: Histatin-1b
# T10 chain: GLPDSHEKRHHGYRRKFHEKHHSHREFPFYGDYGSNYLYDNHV
# T11: Histatin-1a
# T11 chain: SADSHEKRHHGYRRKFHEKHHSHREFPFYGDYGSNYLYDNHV
# T12: HV-10
# T12 chain: HLPPPIFNHV
# T13: kB1-NHVIA (not fully specified)
# T13 chain: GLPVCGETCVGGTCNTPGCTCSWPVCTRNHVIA
# T14: Salusin substrate (H. sapiens)
# T14 chain: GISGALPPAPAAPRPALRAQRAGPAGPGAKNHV
# T15: kB1-NH (not fully specified)
# T15 chain: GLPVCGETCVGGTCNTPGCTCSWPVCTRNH
# T16: kB1-DHV (not fully specified)
# T16 chain: T3 chain with E30D
# T17: Histatin-3a
# T17 chain: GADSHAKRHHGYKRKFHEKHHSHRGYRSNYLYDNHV
# T18: kB1-AHV (not fully specified)
# T18 chain: T3 chain with E30A
# T19: SFTI-DHV
# T19 chain: GRCTKSIPPICFPDHV
# T20: EV-9
# T20 chain: EINSTEINHV
# T21: kB1-QHV (not fully specified)
# T21 chain: T3 chain with E30Q
# T22: RV-10
# T22 chain: RVTRPVNHV
# T23: Galanin substrate (H. sapiens)
# T23 chain: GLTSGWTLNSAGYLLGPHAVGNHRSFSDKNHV
# T24: kB1-NHVI (not fully specified)
# T24 chain: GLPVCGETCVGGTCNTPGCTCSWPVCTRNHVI
# T25: kB1-N* (not fully specified)
# T25 chain: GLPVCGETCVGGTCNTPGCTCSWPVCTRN
# T26: Histatin-3b
# T26 chain: T17 chain with A2L
# T27: SA-kB1-NHV
# T27 chain: T1 chain
# B1: Jack bean legumain (Takara Bio) (protein)
# chain: EVGTRWAVLVAGSNGYGNYRHQADVCHAYQLLIKGGVKEENIVVFMYDDIAYNAMNPRPGVIINHPQGPDVYAGVPKDYTGEDVTPENLYAVILGDKSKVKGGSGKVINSNPEDRIFIFYSDHGGPGVLGMPNAPFVYAMDFIDVLKKKHASGGYKEMVIYIEACESGSIFEGIMPKDLNIYVTTASNAQENSFGTYCPGMNPPPPEEYVTCLGDLYSVSWMEDSETHNLKRETVQQQYQSVRKRTSNSNSYRFGSHVMQYGDTNITAEKLYLYHGFDPATVNFPPHNGNLEAKMEVVNQRDAELLFMWQMYQRSNHQPEKKTHILEQITETVKHRNHLDGSVELIGVLLYGPGKSSSVLHSVRAPGLPLVDDWTCLKSMVRVFETHCGSLTQYGMKHMRAFGNVCNSGVSKASMEEACKAACGGYDAGLLYPSNTGYSA
# B2: butelase 1 (active enzyme purified from pods of Clitoria ternatea) (protein)
# chain: VEGTRWAVLVAGSKGYVNYRHQADVCHAYQILKKGGLKDENIIVFMYDDIAYNESNPHPGVIINHPYGSDVYKGVPKDYVGEDINPPNFYAVLLANKSALTGTGSGKVLDSGPNDHVFIYYTDHGGAGVLGMPSKPYIAASDLNDVLKKKHASGTYKSIVFYVESCESGSMFDGLLPEDHNIYVMGASDTGESSWVTYCPLQHPSPPPEYDVCVGDLFSVAWLEDCDVHNLQTETFQQQYEVVKNKTIVALIEDGTHVVQYGDVGLSKQTLFVYMGTDPANDNNTFTDKNSLGTPRKAVSQRDADLIHYWEKYRRAPEGSSRKAEAKKQLREVMAHRMHIDN
# Assays:
# [1] = target: T1, kB1-NHV
# [2] = target: T2, Thanatin analog
# [3] = target: T3, kB1-EHV
# [4] = target: T4, GV-10
# [5] = target: T5, SFTI-NHV
# [6] = target: T6, Apelin substrate (H. sapiens)
# [7] = target: T7, SV-10
# [8] = target: T8, Neuromedin U substrate (H. sapiens)
# [9] = target: T9, Rat neuromedin U substrate
# [10] = target: modified GFP ending with Asn-His-Val at the C-terminus and starting with Gly-Ile at the N-terminus
# [11] = target: T10, Histatin-1b
# [12] = target: T11, Histatin-1a
# [13] = target: T12, HV-10
# [14] = target: T13, kB1-NHVIA
# [15] = target: T14, Salusin substrate (H. sapiens)
# [16] = target: T15, kB1-NH
# [17] = target: T16, kB1-DHV
# [18] = target: T17, Histatin-3a
# [19] = target: T18, kB1-AHV
# [20] = target: MrIA conotoxin substrate
# [21] = target: T19, SFTI-DHV
# [22] = target: T20, EV-9
# [23] = target: T21, kB1-QHV
# [24] = target: T22, RV-10
# [25] = target: T23, Galanin substrate (H. sapiens)
# [26] = target: T24, kB1-NHVI
# [27] = target: T25, kB1-N*
# [28] = target: T26, Histatin-3b
# [29] = target: T27, SA-kB1-NHV
protein,measurement,setting,value
B1,hydrolysis or cyclization of kB1-NHV (MS),[1],commercial jack bean legumain was unable to cyclize kB1-NHV and generated only the linear form of kB1
B2,Yield (%) of cyclization,[2],95%
same,Cyclization yield (%) at 4 h,[3],< 1%
same,cyclization after 4 h (MS),[3],"No cyclization of kB1-AHV, kB1-QHV or kB1-EHV was observed after incubating with butelase 1 for 4 h"
same,"Yield (%) of dimerization and cyclization, product Cyclo([..])2",[4],50%
same,Cyclization yield (%) at 0.8 h,[5],> 95%
same,Km,[5],51 µM
same,catalytic efficiency (kcat/Km),[5],"catalytic efficiency of 11,700 M^-1 s^-1"
same,kcat,[5],0.6 s⁻¹
same,kcat/Km,[5],10700 M⁻¹ s⁻¹
same,Km,[6],6.7 µM
same,cyclization yield within 5 min,[6],butelase 1 achieved >95% cyclization yields within 5 min for all peptides tested
same,kcat,[6],5.78 s⁻¹
same,kcat/Km,[6],859000 M^-1 S^-1
same,"Yield (%) of dimerization and cyclization, product Cyclo([..])2",[7],50%
same,Km,[8],8.7 µM
same,cyclization yield within 5 min,[8],butelase 1 achieved >95% cyclization yields within 5 min for all peptides tested
same,kcat,[8],5.78 s⁻¹
same,kcat/Km,[8],664000 M^-1 S^-1
same,Km,[9],20.2 µM
same,cyclization yield within 5 min,[9],butelase 1 achieved >95% cyclization yields within 5 min for all peptides tested
same,kcat,[9],26.6 s⁻¹
same,kcat/Km,[9],1.31e+06 M^-1 S^-1
same,"cyclization yield within 15 min (SDS page, ESI-MS)",[10],The cyclization reaction completed within 15 min with >90% yield
same,Yield (%) of cyclization,[11],90%
same,Yield (%) of cyclization,[12],90%
same,"Yield (%) of dimerization and cyclization, product Cyclo([..])2",[13],50%
same,Cyclization yield (%) at 3 h,[14],> 95%
same,Km,[14],129 µM
same,kcat,[14],0.38 s⁻¹
same,kcat/Km,[14],2970 M⁻¹ s⁻¹
same,cyclization yield within 5 min,[15],butelase 1 achieved >95% cyclization yields within 5 min for all peptides tested
same,Cyclization yield (%) at 4 h,[16],< 5%
same,Cyclization yield (%) at 4 h,[17],< 10%
same,cyclization rate against kB1-NHV,[17],at about a hundred-fold slower than kB1-NHV
same,Yield (%) of cyclization,[18],90%
same,Cyclization yield (%) at 4 h,[19],< 1%
same,cyclization after 4 h (MS),[19],"No cyclization of kB1-AHV, kB1-QHV or kB1-EHV was observed after incubating with butelase 1 for 4 h"
same,Km,[20],7.9 µM
same,Yield (%) of cyclization,[20],95%
same,kcat,[20],2.2 s⁻¹
same,kcat/Km,[20],278000 M⁻¹ s⁻¹
same,Cyclization yield (%) at 4 h,[21],< 10%
same,"Yield (%) of dimerization and cyclization, products Cyclo([..]), [..]",[22],20%
same,Cyclization yield (%) at 4 h,[23],< 1%
same,cyclization after 4 h (MS),[23],"No cyclization of kB1-AHV, kB1-QHV or kB1-EHV was observed after incubating with butelase 1 for 4 h"
same,Cyclization yield (%) at 0.8 h,[1],> 95%
same,Km,[1],213 µM
same,conversion into cyclic kB1 within 6 min (RP-HPLC),[1],converted about 40% of kB1-NHV into cyclic kB1 within 6 min
same,kcat,[1],2.28 s⁻¹
same,kcat/Km,[1],10700 M⁻¹ s⁻¹
same,"Yield (%) of dimerization and cyclization, products Cyclo(RVTRPVN), Cyclo(RVTRPVN)2",[24],20%
same,Km,[25],34.2 µM
same,cyclization yield within 5 min,[25],butelase 1 achieved >95% cyclization yields within 5 min for all peptides tested
same,kcat,[25],3.54 s⁻¹
same,kcat/Km,[25],103000 M^-1 S^-1
same,Cyclization yield (%) at 2 h,[26],> 95%
same,Km,[26],62 µM
same,kcat,[26],0.25 s⁻¹
same,kcat/Km,[26],4030 M⁻¹ s⁻¹
same,Cyclization yield (%) at 4 h,[27],< 10%
same,Yield (%) of cyclization,[28],90%
same,Cyclization yield (%) at 0.2 h,[29],> 95%
same,Km,[29],31.5 µM
same,fold change of catalytic efficiency against kB1-NHV,[29],a 50-fold improvement in the catalytic efficiency of SA-kB1-NHV compared to kB1-NHV
same,kcat,[29],17.1 s⁻¹
same,kcat/Km,[29],542000 M⁻¹ s⁻¹
